Assay results from patent US20250276075A1, “METHODS OF TREATING AXL-EXPRESSING CANCERS WITH ANTI-AXL ANTIBODIES, ANTIBODY FRAGMENTS AND THEIR IMMUNOCONJUGATES” (BIOATLA, INC., priority 2020, published 2025).
Numbering of substitutions follows the chain as printed. Names and notes keep the numbering of the source.

T1: Axl (Homo sapiens, UniProt P30530)
T1 sequence (P30530 26-451 limits assumed): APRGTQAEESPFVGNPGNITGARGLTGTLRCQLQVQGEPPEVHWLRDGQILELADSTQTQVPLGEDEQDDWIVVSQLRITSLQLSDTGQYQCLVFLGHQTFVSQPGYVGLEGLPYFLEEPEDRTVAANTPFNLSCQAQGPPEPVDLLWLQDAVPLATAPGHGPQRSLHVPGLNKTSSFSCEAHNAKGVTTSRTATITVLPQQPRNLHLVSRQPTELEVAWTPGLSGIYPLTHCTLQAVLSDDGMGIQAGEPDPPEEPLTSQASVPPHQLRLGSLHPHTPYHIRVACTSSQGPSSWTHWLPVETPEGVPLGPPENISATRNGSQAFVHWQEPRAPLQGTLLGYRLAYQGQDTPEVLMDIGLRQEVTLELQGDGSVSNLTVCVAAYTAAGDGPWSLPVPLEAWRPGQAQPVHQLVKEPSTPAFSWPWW

B1: HC-T030A (antibody, V domains shown)
VH: EVQLVQSGAEVKKPGATVKISCKVSGYSFAGHTMNWIRQPPGKGLEWIGLIKPSNGGTSYNQKFKGRVTISADKSISTAYLQWSSLKASDTAMYYCAHGHYESYFAMDYWGQGTLVTVSS
VL: DIQMTQSPSSLSASVGDRVTITCKASQDVSSAVAWYQQKPGQAPRLLIYWASTRHTGVPSRFSGSGSGTEFTLTISSLQPDDFATYYCQEHFSTPLTFGQGTKVEIK
B2: LC-V029W (antibody, V domains shown)
VH: B1 VH with A30T
VL: B1 VL with V29W
B3: HC-N035I (antibody, V domains shown)
VH: B1 VH with A30T, N35I
VL: B1 VL
B4: LC-V029N (antibody, V domains shown)
VH: B1 VH with A30T
VL: B1 VL with V29N
B5: LC-F092E (antibody, V domains shown)
VH: B1 VH with A30T
VL: B1 VL with F92E
B6: LC-A034Q (antibody, V domains shown)
VH: B1 VH with A30T
VL: B1 VL with A34Q
B7: LC-F092C (antibody, V domains shown)
VH: B1 VH with A30T
VL: B1 VL with F92C
B8: LC-A032M (antibody, V domains shown)
VH: B1 VH with A30T
VL: B1 VL with A32M
B9: LC-H091V (antibody, V domains shown)
VH: B1 VH with A30T
VL: B1 VL with H91V
B10: LC-H091T (antibody, V domains shown)
VH: B1 VH with A30T
VL: B1 VL with H91T

These molecules were tested against Axl (UniProt P30530) (assay: ELISA, 1:3 dilution). Details: not given.

Molecule	Affinity ELISA CPE mutant ratio (1:3, pH 6.0/7.4)
B1	1.29
B2	2.31
B3	2.81
B4	2.6
B5	1.76
B6	2
B7	3.86
B8	4.76
B9	4.13
B10	3.78

Each molecule was assayed against Axl (UniProt P30530) (assay: ELISA, 1:9 dilution). Details: not given.

Molecule	Affinity ELISA CPE mutant ratio (1:9, pH 6.0/7.4)
B1	1.76
B2	2.35
B3	1.12
B4	2.65
B5	2
B6	1.41
B7	4.58
B8	2.92
B9	1.17
B10	3.78

These molecules were tested against T1, Axl (assay: Affinity ELISA of CPE mutant antibodies for binding to Axl at pH 6.0 over pH 7.4). Details: heavy chain variable region mutants; 1:3 dilution.
Source text: The DNA encoding the wild-type antibody was evolved to generate a mutant antibody library using Comprehensive Positional Evolution (CPE), which each position in the template antibody is randomized one at a time. Each mutant antibody in the library has only one single point mutation. The mutant antibodies in the library were generated by simultaneously screening for selective binding affinity to Axl at pH 6.0 over pH 7.4 by ELISA. Two mutant antibody dilutions were used: 1:3 and 1:9 dilutions. The mutant antibodies that have at least 1.5 ratio of binding affinity at pH 6.0 to at pH 7.4 under either 1:3 or 1:9 dilution are selected as conditionally active antibodies, with the single point mutations indicated in each of the heavy chain and light chain variable region (Tables 1 and 2).
A wild-type antibody to Axl was selected as the template antibody (with a heavy chain variable region of 063-hum10F10-HC in FIG. 1A and a light chain variable region of […]). The DNA encoding the wild-type antibody was evolved to generate a mutant antibody library using Comprehensive Positional Evolution (CPE), a method by which each position in the template antibody is randomized one at a time. Each mutant antibody in the library has only one single point mutation. The mutant antibodies in the library were generated by simultaneously screening for selective binding affinity to Axl at pH 6.0 over pH 7.4 as determined by ELISA.
Simultaneously, the expression level of the mutant antibodies was also optimized for the purpose of higher fields in a manufacturing process. The screening was done in serum using a FLAG tag because there were human antibodies in the serum which might cause false positives for the screening. The screening buffer was a carbonate buffer (Krebs buffer with ringer-standard buffer but different from PBS). […] Some of the selected mutant antibodies (scFv) were represented in FIG. 2 with their higher activity at pH 6.0 than at pH 7.4, while their activity ratios between pH 6.0 to pH 7.4 were at least 11 fold (FIG. 3).

Molecule	Affinity ELISA CPE mutant ratio (1:3, pH 6.0/7.4)
B1	1.292
B3	2.814

Same assay, conditions: heavy chain variable region mutants; 1:9 dilution

Molecule	Affinity ELISA CPE mutant ratio (1:9, pH 6.0/7.4)
B1	1.762
B3	1.121

Same assay, conditions: light chain variable region mutants; 1:3 dilution

Molecule	Affinity ELISA CPE mutant ratio (1:3, pH 6.0/7.4)
B2	2.310
B4	2.595
B5	1.759
B6	1.999
B7	3.862
B8	4.757
B9	4.133
B10	3.779

Same assay, conditions: light chain variable region mutants; 1:9 dilution

Molecule	Affinity ELISA CPE mutant ratio (1:9, pH 6.0/7.4)
B2	2.353
B4	2.652
B5	1.999
B6	1.409
B7	4.576
B8	2.920
B9	1.171
B10	3.781
